Data taken from the DeepSol protein solubility set.

Experiment: soluble on expression in E. coli; label from the status in PepcDB or PDB records
For “MAPTSSIEIVLDKTTASVGEIVTASINIKNITNFSGCQLNMKYDPAVLQPVTSSGVAYTKSTMPGAGTILNSDFNLRQVADNDLEKGILNFSKAYVSLDDYRTAAAPEQTGTVAVVKFKVLKEETSSISFEDTTSVPNAIDGTVLFDWNGDRIQSGYSVIQPAVINLDMTKASYITMGYDKNAAEVGEIIKATVKINKITNFSGYQVNIKYDPTVLQAVNPKTGVAYTNSSLPTSGELLVSEDYGPIVQGVHKISEGILNLSRSYTALEVYRASESPEETGTLAVVGFKVLQKKATTVVFEDSETMPNGITGTTLFNWYGNRIQSGYFVIQPGEINSAPIATLEHHHHHH”, the “soluble on expression in E. coli” value was “soluble”. In the case of “MAQEVIKIRGGRTLNGEVNISGAKNSAVAIIPATLLAQGHVKLEGLPQISDVKTLVSLLEDLNIKASLNGTELEVDTTEIQNAALPNNKVESLRASYYMMGAMLGRFKKCVIGLPGGCPLGPRPIDQHIKGFKALGAEIDESSTTSMKIEAKELKGAHIFLDMVSVGATINIMLAAVYATGQTVIENAAKEPEVVDVANFLTSMGANIKGAGTSTIKINGVKELHGSEYQVIPDRIEAGTYMCIAAACGENVILNNIVPKHVETLTAKFSELGVNVDVRDERIRINNNAPYQFVDIKTLVYPGFATDLQQPITPLLFMANGPSFVTDTIYPERFKHVEELKRMGANIEVDEGTATIKPSTLHGAEVYASDLRAGACLIIAGLIAEGVTTIYNVKHIYRGYTDIVEHLKALGADIWTETV”, the “soluble on expression in E. coli” value is reported as “not soluble”. For “MAQKISINRGLGLGMAQLGAFARMGMMINVSAMGPQDGHANGGVGEGGIEMSRKSTWRSENDEIKTRKSTAFEPDLDFDMIDFRQPSGSSQYLYGFGFDNNAFGLADGQSDEDSVFM”, the “soluble on expression in E. coli” value was “not soluble”. In the case of “MAQLENQILETLKPLIDANTGKSYVAAKNVKNLKCGDAEISLDVVLAYPAKSQFDAVRQQFEAALAPLAEGRAIKIAVSAQIVSHSAQRGVPLLPGVKNVIAVASGKGGVGKSTTAANLALALADEGARVGLLDADIYGPSQPLMMGLQGQRPETADGKLTPLSNHGIQTMSIGYLVDADQAMVWRGPMVSQALQQLLNDTRWDDLDYLVIDMPPGTGDVQLTLSQKVPVTGALIVTTPQDIALLDARKGVTMFQKVGVPILGLVENMAIHVCSNCGHAEHIFGEGGAVKMAQDFGVELLGSLPLDLAIRQAVDEGRPSVAADPSGKPAELYRAIARRVAVKVGEKAQDFSGKFPKIVIQNNLEHHHHHH”, the “soluble on expression in E. coli” value is reported as “not soluble”. In the case of “MAQLQKDAQENECRELIEVPSGHDYQIRQYIEKYPQFLWKYSEGVTIPGYVLNIAEQLNSEYGNVENIPIDLYPCEYYRIVEHSMPTDIGLQPKRFDRIKENLTEKLQQVFRHQDADLYMPENHLIPTVACAVCIQGTWYRGKIENVPPRGIWMYVNLIDAGMSRQVMKSDVRRLPLAFGHYPPMVVKATIRGAVIHRMDRGKVDQFQNMIRNIDYLARCQITTCTEPFQIVLCHPKYEFMNMCSFLLAPRRGQPSQEGVWIPREIAKQLERENGFERNDYDDSGADSDFLEDEEEEDAGWDYGEGDDYAYLRSFPPACKIFRMSEDEFMVERIENERIIYLTSKDMLERRREAEEYLTKEKESLESLPDVWMAYGTSCSVFHQGTMKRASCCGEEGSTIQLLLIDYGISIEVSKSDVYNIPNKDEVNMEPFVTLVSIKSFPFIHYSRVKILQELLPRGTPVKFHRDRKCKEIPTKGEIYQMNGTSVEQSVSEIVSSCQLDLECNSLLPSRIANNELTQLLAYCINYEFMYKSPNVVIYKKSKRVKSHF”, the “soluble on expression in E. coli” value is reported as “not soluble”. In the case of “MAQTTINEQTLVNEQRLLAYDCFQNTNKVGLLSALEYLDFVNHLVKSNQIKYLLVPSASQTVYQHVFFDHFRFLSFDNNLLSGFGLAIRLHKEAETVFMLVEKTKQTETEIKKLLEAVKQFSGLKLVVLLVNSPFENKRTKLSYEIVKIIKKHGYQYKRYCRKNFEKKFFNTWNHQKRKQKTKNNLFFVELNSQFAFGTSMANSNSFDLSFTSFKERFNTENNLDIDVHFNVPHKYLLKNLESIKHHLQIDNNTIWKQAFINFAGQLLLYFENLQVFAQEASTLQVNAIVIKQDAYFIVEVMKGYNYDNNCICLLEANKDQNVGLTTASTNTLIGDIKQYEPCFFIEK”, the “soluble on expression in E. coli” value is reported as “soluble”. With “MARIRARGSACPSQCSCSGTTVDCSGKSLASVPTGIPTTTQVLYLYDNQITKLEPGVFDRLTQLTRLDLDNNQLTVLPAGVFDKLTQLTQLSLNDNQLKSIPRGAFDNLKSLTHIWLLNNPWDCACSDILYLSRWISQHPGLVFGYLNLDPDSARCSGTNTPVRAVTEASTSPSKCPG” the “soluble on expression in E. coli” value was “soluble”.
